Measurements as given in article PMC9428257, “Developing high-affinity decoy receptors to treat multiple myeloma and diffuse large B cell lymphoma” (The Journal of Experimental Medicine, 2022).

Target: T1, human BAFF (B cell activating factor) (human, UniProt Q9Y275 134-285)
T1 construct: also called hBAFF
Assay: flow cytometry on cells; yeast-displayed sBCMA (wild type or mutant clone) incubated with increasing concentrations of soluble APRIL or BAFF; same reagents and protocols as the library sorts (PBS with 0.1% BSA, room temperature); KD from a one site-specific binding fit in GraphPad Prism
Settings: one partner purified

T1 sequence (Q9Y275 134-285): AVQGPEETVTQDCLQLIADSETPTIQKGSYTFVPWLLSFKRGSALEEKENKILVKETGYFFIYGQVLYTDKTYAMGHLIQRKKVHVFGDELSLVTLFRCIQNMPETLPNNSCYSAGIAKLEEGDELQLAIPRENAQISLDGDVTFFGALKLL

B1: yeast-displayed mutant sBCMA V3 (S16G, H19Y, T36A, N53D) (domain or fragment, human, UniProt Q02223 1-54, looked up)
chain: MLQMAGQCSQNEYFDGLLYACIPCQLRCSSNTPPLACQRYCNASVTNSVKGTDA
notes: B cell maturation antigen (BCMA), human, extracellular domain, amino acids Met1-Ala54, with the four V3 mutations
With B1 the Kd was 9 pM.
